Experimental data from patent publication US20240002531A1 (ONO PHARMACEUTICAL, published 2024).
Blank lines part the entries; values can stand above or below the binder they belong to.

Assays:
Experiment in all cases: peptide ELISA, OD 655 nm
[1] = target: T1, HER2 peptide p603-622 (amino acids 603 to 622 of human HER2) (human)
T1 construct: Synthetic peptide; also called wild-type HER2 peptide
T1 peptide: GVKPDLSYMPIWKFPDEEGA

[2] = target: T2, G603A peptide (HER2 603-622 with G603A) (human)
T2 peptide: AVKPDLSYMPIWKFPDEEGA

[3] = target: T3, V604A peptide (HER2 603-622 with V604A) (human)
T3 peptide: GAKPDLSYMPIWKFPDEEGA

[4] = target: T4, K605A peptide (HER2 603-622 with K605A) (human)
T4 peptide: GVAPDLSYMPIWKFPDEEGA

[5] = target: T5, P606A peptide (HER2 603-622 with P606A) (human)
T5 peptide: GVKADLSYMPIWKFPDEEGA

[6] = target: T6, D607A peptide (HER2 603-622 with D607A) (human)
T6 peptide: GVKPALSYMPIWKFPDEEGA

[7] = target: T7, L608A peptide (HER2 603-622 with L608A) (human)
T7 peptide: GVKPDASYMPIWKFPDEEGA

[8] = target: T8, S609A peptide (HER2 603-622 with S609A) (human)
T8 peptide: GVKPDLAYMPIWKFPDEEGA

[9] = target: T9, Y610A peptide (HER2 603-622 with Y610A) (human)
T9 peptide: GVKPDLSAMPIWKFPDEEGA

[10] = target: T10, M611A peptide (HER2 603-622 with M611A) (human)
T10 peptide: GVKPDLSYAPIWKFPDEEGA

[11] = target: T11, P612A peptide (HER2 603-622 with P612A) (human)
T11 peptide: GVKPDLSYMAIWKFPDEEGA

[12] = target: T12, I613A peptide (HER2 603-622 with I613A) (human)
T12 construct: also called 1613A
T12 peptide: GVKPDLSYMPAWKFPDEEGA

[13] = target: T13, W614A peptide (HER2 603-622 with W614A) (human)
T13 peptide: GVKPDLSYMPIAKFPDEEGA

[14] = target: T14, K615A peptide (HER2 603-622 with K615A) (human)
T14 peptide: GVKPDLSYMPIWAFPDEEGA

[15] = target: T15, F616A peptide (HER2 603-622 with F616A) (human)
T15 peptide: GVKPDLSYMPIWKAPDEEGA

[16] = target: T16, P617A peptide (HER2 603-622 with P617A) (human)
T16 peptide: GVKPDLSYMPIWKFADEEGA

[17] = target: T17, D618A peptide (HER2 603-622 with D618A) (human)
T17 peptide: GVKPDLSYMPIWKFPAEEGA

[18] = target: T18, E619A peptide (HER2 603-622 with E619A) (human)
T18 peptide: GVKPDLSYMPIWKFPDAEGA

[19] = target: T19, E620A peptide (HER2 603-622 with E620A) (human)
T19 peptide: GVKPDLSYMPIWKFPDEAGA

[20] = target: T20, G621A peptide (HER2 603-622 with G621A) (human)
T20 peptide: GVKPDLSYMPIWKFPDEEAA

[21] = target: T21, HER2_604-622C peptide (NH2-VKPDLSYMPIWKFPDEEGAC-COOH) (human)
T21 construct: KLH was added for immunisation, the peptide itself was coated in the screening ELISA
T21 peptide: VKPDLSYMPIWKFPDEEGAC

binding result [1]: binds | binding result [2]: binds | binding result [3]: binds | binding result [4]: binds | binding result [5]: binds | binding result [6]: binds | binding result [7]: binds | binding result [8]: binds | binding result [9]: binds | binding result [10]: binds | binding result [11]: binds | binding result [12]: binds | binding result [13]: binds | binding result [14]: binds | binding result [15]: binds | binding result [16]: binds | binding result [17]: binds | binding result [18]: binds | binding result [19]: binds | binding result [20]: binds | binding result [21]: binds
B1: H2Mab-285 antibody (antibody, mouse IgG3, V domains shown)
VH: EVQLVESGGGLVQPGGSLKLSCAASGFTFSNYGIFWVRQTPDKRLELVATVKSNGGSTYYPDSVKGRFTISRDNAKKTLYLQMSSLKSEDTAMYYCAREGGDYWGQGTSVTVSS
VL: DIVMTQSHKFMSTSVGDRVSITCKASQDVGTAVAWYQQKPGQSPKLLIYWTSTRHTGVPDRFTGSGSGTDFTLTIRNVQSEDLADYFCQQYNRNPLTFGAGTRLELKR

binding result [1]: binds | binding result [2]: binds | binding result [3]: binds | binding result [4]: binds | binding result [5]: binds | binding result [6]: binds | binding result [7]: binds | binding result [8]: binds | binding result [9]: binds | binding result [10]: binds | binding result [11]: binds | binding result [12]: binds | binding result [13]: binds | binding result [14]: no binding (tested: 10 ug/ml) | binding result [15]: no binding (tested: 10 ug/ml) | binding result [16]: binds | binding result [17]: binds | binding result [18]: binds | binding result [19]: binds | binding result [20]: binds | binding result [21]: binds
B2: H2Mab-284 antibody (antibody, mouse IgG1, kappa, V domains shown)
VH: QVTLKESGPGILQPSQTLSLTCSFSGFSLSTSGVGVGWIRQPSGKGLEWLAHIWWDDDKNYNPALKSRLTISKDTSTNQGFLKIASVDTADTATYFCARIEGQKGFAYWGQGTLVTVSA
VL: DIVMSQSPSSLAVSVGEKVTMSCKSSQSLLYSRNQKNYLAWYQQKPGQSPKLLIYWASTRESGVPDRFTGSGSGTDFTLTISSVKAEDLAVYYCQQYYSSPYTFGGGTKLEIKR
